Source: publication PMC4742745 (The Journal of Biological Chemistry, 2015)
Each block holds one binder with its values, some of them ahead of it.

Legend:
[1] = molecular target: T1, recombinant human wild type LCAT protein (lecithin-cholesterol acyltransferase) (human, UniProt P04180 25-440); assay: cell-based or functional assay
T1 sequence (looked up): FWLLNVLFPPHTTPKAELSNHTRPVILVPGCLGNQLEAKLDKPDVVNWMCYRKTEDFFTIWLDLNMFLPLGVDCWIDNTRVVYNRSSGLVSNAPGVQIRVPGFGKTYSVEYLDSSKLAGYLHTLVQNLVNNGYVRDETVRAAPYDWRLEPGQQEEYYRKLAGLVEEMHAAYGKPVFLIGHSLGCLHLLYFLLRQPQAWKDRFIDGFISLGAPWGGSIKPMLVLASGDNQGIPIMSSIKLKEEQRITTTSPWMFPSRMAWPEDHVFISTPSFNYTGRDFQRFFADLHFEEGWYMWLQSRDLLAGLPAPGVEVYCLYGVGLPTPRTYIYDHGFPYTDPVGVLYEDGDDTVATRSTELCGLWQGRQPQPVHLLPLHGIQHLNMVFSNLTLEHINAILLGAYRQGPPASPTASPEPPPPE

[2] = molecular target: T1, recombinant human wild type LCAT …; assay: SPR; Biacore 3000, 25 °C, HBS-EP (10 mM HEPES pH 7.4, 150 mM NaCl, 3.0 mM EDTA, 0.05% surfactant P20); mAb captured (100 RU) on goat anti-human IgG Fc amine-coupled to a CM5 chip; LCAT flowed over (human 100 nM to 412 pM, cynomolgus 111 nM to 457 pM, 3-fold dilutions); 1:1 binding model, KD = kd/ka; conditions: both partners purified

increase of the cholesterol esterification activity of native LCAT by 27C3, apoAI-proteoliposomes as substrate [1]: 3 fold
Kd [2]: 1.32 nM
B1: 27C3, fully human anti-human LCAT agonistic monoclonal antibody (antibody, V domains shown)
VH: QVQLQESGPGLVKPSQTLSLTCTVSGASISSGGYNWSWIRQHPGKGLEWIGYIYYSGSTYYNPSLKSRVTISVDTSKNQFSLKLSSVTAADTAVYYCARERGYCSSTSCSRVMDVWGQGTTVTVSS
VL: SSELTQDPAVSVALGQTVRITCQGDSLRSYYASWYQQKPGQAPVLVIYGKNNRPSGIPDRFSGSSSGNTASLTITGAQAEDEADYYCNSRDNIGNHQVFGGGTKLTVLG
notes: VH of 27C3; VL of 27C3 (lambda); Human IgG2 with lambda light chain; a possible N-linked glycosylation site in heavy chain CDR1; also called 27C3 mAb; 27C3-huIgG2; source: XenoMouse hybridoma, purified from clonal hybridoma exhaust supernatants

Kd [2]: 1.01 nM
koff [2]: 0.000133 s⁻¹
kon [2]: 132000 M⁻¹ s⁻¹
B2: 18E5, fully human anti-human LCAT agonistic monoclonal antibody (antibody, V domains shown)
VH: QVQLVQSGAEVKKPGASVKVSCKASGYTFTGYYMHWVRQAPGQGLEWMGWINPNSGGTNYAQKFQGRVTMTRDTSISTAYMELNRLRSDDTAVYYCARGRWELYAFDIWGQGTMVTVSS
VL: EIVLTQSPGTLSLSPGERATLSCRASQSVSGSYLTWYQQKPGQAPRLLIYGASSRATGIPDRFSGSGSGTDFTLTISRLEPEDFAMYYCQQYGGSPPFTFGPGTKVDIKR
notes: VH of 18E5; VL of 18E5 (kappa); Human IgG with kappa light chain (the light chain was amplified with a primer to the human kappa constant region); also called 18E5 mAb; source: XenoMouse hybridoma, purified from clonal hybridoma exhaust supernatants
